Tested on: Saccharomyces cerevisiae
Assay: transcriptional activation domain activity (GFP:mCherry ratio, weighted mean of sorted bins, harmonized to initial dataset scale) (arbitrary fluorescence ratio units); higher = stronger transcriptional activation
Conditions: beta-estradiol 1 µM; induction time 4 h
Outline: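 Barcoded tiles were sequenced after cells were sorted into 8 bins by GFP:mCherry ratio. Before sorting, cultures had been diluted 1:5 into SC with 1 uM beta-estradiol and held for 4 hours at 30 °C. The tiles were fused to an estradiol-inducible synthetic transcription factor and integrated at URA3 in yeast diploids carrying a GFP reporter. Activation activity is the read-weighted mean of bin median fluorescence, averaged over barcodes and linearly mapped onto the initial dataset scale, and tiles under 50 reads were left out.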

Sequence	transcriptional activation domain activity
MILLQCIPPFFLFSFLYSFVFPSPLPTIYDLSFSVSFFLFLFPWLVEIQLCCC	52800
RSSVGAYIKPKQQVVAVPCVGPHDSGINVLYLCAPSVEEVVMLTRFVILHLGG	55500
TQPIDIAASNQQNGEIAQLWDFNVDQFNMTPSNSSGSATISAPNSFTSDIPQY	57300
MGGGVWEPVLDVWLFSFFFSLYTSFFIGFGSLSFFPSYLVCFFFISFPPHFLL	53400
FQTIHVDASCIGIASPLVHVELQPDLCGRKFPELIGIDLTAATLVRLLSLLCL	43000
MNPPIHSLSFLQSYICFMLIPPLPLMFIIVFHPLYFFWLFLSFLLLDYYLSLL	37800
KLGFQVLVQVILVIWYKPDKIPSAVNVDKEIKKGEPVDNKARVLVECVLDVFQ	51700
VLSKKTIDKVLRLIRKLDWNDPQVVQALHKVFSKVWKIKFSHISLLAMLIYDL	92000
PTTSFFFWYRLYCSVLLSIGILISIPTLWILPSCFLPNHWKALWVVVLSFLGW	52400
AAAAALRTEETADSAGQLAEAGCRSVDTADTAEGCLEEMAVVVVAVASSVGAM	55600
MAIGLSACSILFLFSFTCVFFSFLSCLFLHPFFFLSFLFSLSLSLSLFFFFFA	66200
NKMKVHINKTNYELDSKEAVMAVLGTHRVEVSVLCLLYLVLRRHKKILDFASS	48200
EMVKTESVATSSTTTTKTESEGAVVKEEKMASPSPTRVKVEKVEVKRVPTISL	15700
VLRWGDTNTLPFVHIMMVFIHKMAQYAAAMSYLEQVFPWKLTMVMLNYHLTSC	68500
EEGEGPREEGGEEAHEQRDEGRHEEREERKEERREEPVRAAVPVRAAEPAPVV	23000
MTEQPPAIRIADKDGDGPAKRRRRPALSCAECRNRKVRCDRREPCGSCTRLRS	42400
MKILYCILCMLFFFLFLSFYIQKKILFSLTCVFTLPPLSLFLFFFLFIVQILC	55700
MGLLCFVFVLHSVFFIFNALSFLPWFVFLKIKFIFLCLSSFGRVFSSFIYMIF	53000
GAEEGAKEKAGEVAKKRKREVAAAVEDEEGGQPKAEKVRTKKGGGKSKEKKDS	27400
RHLSIRLCEIGLIIFAHGLHVHNAYSHLYICLHVVTSRYLYGSHCMVCQLLFY	75800
ESDAGEGDKLSKKQKAESGKAVKPEATEGADKKDKKKDKKEKKKDKEAPAKAD	< 6570

Sequence	transcriptional activation domain activity
SHDTFPLRPILVKLLCHAMLMKGVDPVSIIEKQPMTYGFVADILLPLVLDLPS	62200
GGALSHHEIRVHWAPSWVSSRAPCSTRGLGCKPGVSLIETVVRAVVLMSCARK	46200
LISRLFAVKEVTKIQDINLEFDIACLWPLVPLSSWVMDYIVTVMQAWSLLFNR	59400
EVNYLYGLILLQFYTGFIHDIIFGSGHLPFLPLMITSIYCSLGVVYGWGYFML	51000
EDEEDAVNGTALSEEDAAERDAKLKRLREEAERKALARRSQAVQRGLPRPANV	14900
ETAKIDIEKQSNGETDISVLRNHAPGTAPTEEENLEKNMAPLRKLIRLLLLNT	39100
MSTPKVVASATRQINAVVVSAGLMQKTVKARVGVQKWNRHIKKHFNRSTNVLV	53100
NRNQDAAEPSAAASSSAAAPAETPARGGNRQNDGANNQGGNNQNNGGNNRQQE	41100
MDILDIFFLFYSLLVSFLFFSLLIPPLFLSSFISISFYFFDGVLCVLLGFFFR	61500
MQCIFVHILLVFIINTFYLVHRLFSSSFLSSFTLFCFLYTHYSFLFFRLIHIS	69500
SPDDFDQTLPLDLSDENITEVAYLPENQHSVLSSTGISNEHTKLFLILNEIIS	63000
FHPIPFLFSSSPLFLIPIFSFHIFHFLLLPFFPSLLLSSFSIPFIPLLSIHSS	57600
KVAAGANGETDGEAKTKKKSSKRVSRRRQPGEEDDEEEAEGAGEGAEKAKKNK	20300
MLLSSLLCYFLNFSSSSHSVGGWFILPYGNRLLHVAFFPSLLLFRLFFFLWLA	52600
DSKLLPGFASYLSFCLFLYAITTVLPFFSLDCPYSTPLTPLMCRLYHFFMFGI	66800
MPLSPPLYFIVFLYLQFQLYAYFICYFYILLSFYSSTHPVLSFYPLYYPFYLL	61300
GFSCHTRILGRPIIISTSTSYIGILLDLVRTFYFLYLLLRILLKVFLAVWCFL	63700
QAPQAGRGQGAQGGRTRHQAGGARAEEDEPQGARQEGRGGQGGGEEEARGGEG	37600
MLCFLYHLVSMCTLLHCLYLLPVLFLIFYASFFLLLACTWSSVRCLISLFFCL	57300
MIIYYIGSIFWCLGNLQVGGFFGFDGIWSYCIFWRNWVRDVFGLSVLIGVVNY	44900
LIVVLILAPHPSLFRMLLRHHLQTLQQPFYFVIHLLVTYTLTFCAFSSLIICA	53700

Sequence	transcriptional activation domain activity
NRWMMATFMSGCVGALVYFFYKLVKVVMLKSTPSFVSIWKSLTTFSIIAIFLL	37200
FVYSLCIRYLLAPTPTFQEHGVSPRRSTGIALITLFFIILVIFLLTWMRLIHI	45100
MVCRDILHFWWMFISLNANAEDIIISRSSSWLSSPLLVCFLVVCNVVCVYFYI	72800
MLLSAHFIDFFLLLLLLLLLHLIVPLIFILHHSLLFFLVLPIVCNYFFSWLPV	78400
LSLAGSNYFGICWNPAVKNCIPYDTYLLWIRCMPFWYLFVFLYDILPPILIVY	52200
VMMAIIYLMVIFTFIIGVVAGVVPFLYFLSESHFLMCRKASETAGFLCLMFAA	33700
KDLKDGTRAPGDESERIVVEELDMERVALDRTLGRLWRSWKKRIRSPTEPSFG	34300
MIRPFSIYSITLDVFPWLLNLFFLFFFLILFPLLRNFLFCVVSLIQNIQPLCF	30400
KFYARILKLLLLLNHILIIAGVNESPYSKDKVIRYLFNMFRLWTTKRSAKENQ	62000
AASKKERQSESHASSKRARSSKNGRGADADSSDEEEAGRSSSRKSRRTSTGDR	30200
APSDTNGNGKRKQTKSRNGCTTCKAKRLKCDETKPHCKQCARRSVQCGGYRKE	39400
LLYALMNFSRIFSSGHSFGRKIIMFFEFVYLLLNFLFGFVSLGHFYFAFHFLI	37000
MPVGIVLQLIAAVQYHLYTAMLFTWTDYKTIFFPYLLKCCLWVWVHQLLCNVS	56900
RPPPPSAAAEPAADAPATEEAKPGHEKKEKTEKKPKEKAKKAEKKEEVCAAAT	< 6570
MTFVSEALITHRIDGGDIGVVNIFSKNKWRSKVYVRILVQICMRWVMMAIYLN	55700
GKGEEEVEEEERLYDRLVIANGHYRVPFVPPLPGLAAWQRAGRATHAAWYRAA	59800
AQLLQRTWLIHWSLFVFFNHPRGRDYIVDLLFQPNYINSIQMACPWILRYLTA	45100
DEEQDRSHRHRRSRSASPRRHKSGNEARERDRHGDDHSRRHRRRRSHERSHRH	48700
FDTRGAIYCSRPRMVMMCELMGWDAAFVLMPYTPRWRRHRRLFHQHFNEAVAN	80200
AAPAAAAAQAAAPVSPAVKAETPVEAPKTIPAAAAPAPAPAKTEAAPAAEPVA	27500
MRLGQLYSLFLFPSFLLSFFIMPLVSVTKYTPGVDNIYFFFFLFFFFFLFFFL	36900

Sequence	transcriptional activation domain activity
MGFLLLLLILVFFFVLYLFYSFLFFFSFHWACCILYDMWEKERVELYLLLLLL	42800
PHHKWLVPTPFASHAFHPVDGYAQSVPYHLFVFLFPMHRLLYLILFVAVNFWS	48000
SLPVSKGVWGSVGRVILLIFTAKPLEFCIQLTLVDFVEVDAHTMRVIHCRKVR	28100
IIKLLVFTLWVLDSMHLILCTIAIYWYLIRNFNNTTNLQLNHWSMNLQTDCNG	43600
PDISAYDDERLKEGRLIAEFILNRTQYAPDETSKNDRVSDSEVPWMDFPSELN	37600
LLVFICAAPYAAYREGNNLIVSSYFCSSFLVFNFYMRLDCGLSWMKHTLLFIV	44700
RMVYSIRLVFHLYAELLLDRAFFLEWFLSFFAECSLDVLPLAFPIATALWDDL	64600
ALCEDRSQTWHPGTQLDFPQELLDQLNYYLVNLRKYFNNESILFLVYLGCVIF	59600
MDLYFMDLFIVILWCGFIVYLVYFLFFYYESGLVYLYIINSMGLCCESGVLFV	67500
MQSKAFSFLLSHISLIGFFFTFYEVLLLQFWFLFSLIFIPSYLLMLIVHLFLL	49000
TLRVLLLQISPLAYARGLKDFLIHLISWTDGTWDSLDPLPWWWLYHVYWPLQF	81000
LFLLFTFPLLGIFDTCFLTSMLFMALCFLFILLLETSFFFFFSLHPNFISWPY	62600
DLLVLLRKCREVALRIIQKESCFNVLNLRRELVSNLLLSFWVVGQSLTTKVPM	33000
QQQEEEEKKKEVGGEAEGYEERVINMGAKNSAPMKAGDRIIICTPGGGGWGKS	9620
APPPPQPAPPVSVAPSKKTSKSKVDAPASNNEPEPVSAPKKGRKGKSKAIAQT	12200
KLAKKEPAAAKPKSEKPKAEKKTTEKKPVAKKATTTKKPAAAKPKAAPKPKTA	27000
HSDLLNDMDSASQRASHNASGFPNFLDTSCSSSFDDHFIFTNNLPFLNNNSIN	60800
RRRKSNSTKPGNAGSKPAKKNKGANSNERERESKEVDEDEDEGNGGGEGEGEE	8620
PELVPLDLKNPELDSSFDLNMNLDLNLNLDSNFNIALNRSDSSGSTMNLDYKL	101000
PANSSFVYVPMGWTLEVRNDGNPAIYAALLVRALLSRRVCRVGLLKHNTILVH	51300

Reference: the supplement of paper PMC12636428
